System: hES-3-MC aggregates
Experiment: BMP4-based differentiation of hES-3-MC aggregates from static or agitated hPSC expansion
Format: cell-based, human
Settings: BMP4-based protocol; for erythroid cells: starting from 2×10^5 hematopoietic precursors, repeated attempts; for T-bra: Day 2; for KDR: Day 4; for total hematopoietic precursors per well: after 2 weeks of differentiation; for total erythroblast per well: day 28
Text: To test the hypothesis that agitation condition may be a major factor for variable differentiation, hES-3 that was initially expanded under either static (static human pluripotent stem cell (hPSC) expansion) or agitation (agitated human pluripotent stem cell expansion) condition for 7 days were differentiated under static condition using a BMP4-based differentiation protocol. […] (FIG. 10). […] Like-wise, subsequent generation of erythroblast was also severely impaired in cultures derived from agitated as compared to static hPSC expansion group (total erythroblast per well: 4.11±2.4×10^4 vs 26.2±4.7×10^6, respectively, p=0.005; total CD235a population: 0.51±0.1% vs 51.8±2.0%, p<0.0001) (FIG. 1E).
(§1) Mesoderm induction of hPSC-MC aggregates using BMP4 based protocol has previously been described. One million HPSC-MC aggregates were cultured in Stemline II hematopoietic stem cell expansion medium (Sigma-Aldrich, USA) containing 50 ng/ml of BMP4 and 50 ng/ml of VEGF165 under static condition. 48 hours later, half the medium was removed and replaced with Stemline II medium containing 50 ng/ml of BMP4, 50 ng/ml of VEGF165 and 20 ng/ml of bFGF (all cytokines from STEMCELL Technologies). HPSC-MC aggregates were cultured for a further 48 hours before being used for hematopoietic precursors differentiation.
as §1, with “One” for “Mesoderm induction of hPSC-MC aggregates using BMP4 based protocol has previously been described. One”, “VEGF165.” for “VEGF165 under static condition.”, “STEMCELL.” for “STEMCELL”, “precursor expansion.” for “precursors differentiation.”
HPSC-MC aggregates were dissociated into single cells by treatment with TrypLE. Express (ThermoFisher Scientific) for 5 minutes at 37° C., passed through 40 μm cell strainer (Greiner Bio-one), centrifuged at 1300 rpm for 3 minutes to pellet cells, and rinsed once with phosphate buffered saline (PBS) before re-suspension in Stemline II medium. Two hundred thousand cells in 100 μl of Stemline II medium were transferred to a 6-well ultra-low attachment plate and cultured with Blast growth medium (BGM) for 2 weeks in static conditions as detailed herein.
Hematopoietic precursors were mixed with equal volume of Stemline II medium containing 50 ng/ml of SCF (STEMCELL. Technologies) and 3 U/ml EPO (Peprotech, USA), for an additional 7 days. Subsequently, cells were diluted 10-fold with PBS and pelleted by centrifugation at 3000 rpm for 10 minutes. Erythroblast cells were seeded at a concentration of 2.5×10^5 cells/ml in 3 ml of Stemline II media containing 1× Serum Replacement 3 (Sigma-Aldrich), 0.3% v/v Ex-CYTE growth enhancement media supplement (Merck, USA), 100 ng/ml SCF, 3 U/ml EPO, 1 μM hydrocortisone (Sigma-Aldrich), 200 μg/ml holo-transferrin (MP Biomedicals) and 1× penicillin-streptomycin (ThermoFisher Scientific) in 6-well ultra-low attachment plates under static condition. Cells were re-suspended in fresh media every 4 days and reseeded at 2.5×10^5cells/m=l when cell concentrations exceeded 2×10^6cells/ml. Cumulative fold-expansion was calculated by multiplying fold-expansion achieved between passaging of cells over the course of experiment(s).
For flow cytometric analysis of mesoderm and hematopoietic surface markers, cells were incubated for 15 minutes at room temperature with 1:50 diluted direct-conjugated antibodies. The following human antibodies were used: T-brachyury-FITC (R&D Systems), KDR-PE (Miltenyi Biotec), CD31-PE, CD43-FITC, CD 45-PE, CD71-APC, CD235a-FITC (all from BD Biosciences, USA). The following antibodies were used as isotype-controls: mouse IgG1-FITC and PE (Miltenyi Biotec, Germany), mouse IgG2bk-FITC and mouse IgG2ak-APC (BD Biosciences). […]

B1: BMP4: bone morphogenic protein; BMP4-based protocol uses 50 ng/ml BMP4 (protein, UniProt P12644 293-408, looked up)
Bone morphogenetic protein 4: SPKHHSQRARKKNKNCRRHSLYVDFSDVGWNDWIVAPPGYQAFYCHGDCPFPLADHLNSTNHAIVQTLVNSVNSSIPKACCVPTELSAISMLYLDEYDKVVLKNYQEMVVEGCGCR
erythroid cells (MC-aggregates expanded in agitation condition): 0.004-4.2×10^7 erythroid cells
erythroid cells (MC-aggregates expanded in static condition): 0.25-7.3×10^7 erythroid cells
total CD235a population (agitated hPSC expansion): 0.51±0.1%
T-bra (agitated hPSC expansion): 0.50±0.02%
KDR (agitated hPSC expansion): 1.1±0.12%
total hematopoietic precursors per well (agitated hPSC expansion): 1.39×10^5±2.18×10^4 per well
total erythroblast per well (agitated hPSC expansion): 4.11±2.4×10^4 per well
total CD235a population (static hPSC expansion): 51.8±2.0%
T-bra (static hPSC expansion): 32.6±1.2%
KDR (static hPSC expansion): 27.9±3.3%
total hematopoietic precursors per well (static hPSC expansion): 5.77×10^6±6.30×10^5 per well
total erythroblast per well (static hPSC expansion): 26.2±4.7×10^6 per well
